Data: PMC9925492, “Reduction of phenolics in faba bean meal using recombinantly produced and purified Bacillus ligniniphilus catechol 2,3-dioxygenase” (Bioresources and Bioprocessing, 2023)

Test system: Cc1cccc(O)c1O
Experiment: purified protein
Details: 10 mM Mn2+, 50 mM phosphate pH 7.5, 32.5 °C

## BLC23O (Halalkalibacterium ligniniphilum)
  Km: 379 ± 86 µM
  kcat: 0.13 ± 0.01 s⁻¹
